Experiment [1] deals with Pea Pathogenity Protein (PPP2) from Madurella mycetomatis (Madurella mycetomatis). Put plainly: SEC; Superdex 200 10/300; with (25 mM Tris 7.5, 50 mM KCl, 100 mM NaCl) or without (25 mM Tris 7.5, 100 mM NaCl) potassium; Bio-rad Gel Filtration Standard; all proteins eluted as a single peak. (Size exclusion chromatography separates by hydrodynamic size, large species first.)

For experiment [2] the target is unchanged. As to the kind of experiment: crystal structure; hanging drop vapor diffusion, protein 10 mg/ml in 20 mM Tris pH 7.5, with or without 5 mM nitrocatechol alone or with 0.5 mM CoCl2; AGDC1 in PEG 3350, 0.2 M potassium salt, MES; PPP2 in PEG 3350, 0.2 M calcium chloride, MES pH 5.5.
For experiment [3], the target named is gallic acid decarboxylase AGDC1 from Arxula adenivorans (Arxula adenivorans). Put plainly: SEC; Superdex 200 10/300; with (25 mM Tris 7.5, 50 mM KCl, 100 mM NaCl) or without (25 mM Tris 7.5, 100 mM NaCl) potassium; Bio-rad Gel Filtration Standard; all proteins eluted as a single peak.
Experiment [4] shares this target. As to the kind of experiment: crystal structure; hanging drop vapor diffusion, protein 10 mg/ml in 20 mM Tris pH 7.5, with or without 5 mM nitrocatechol alone or with 0.5 mM CoCl2; AGDC1 in PEG 3350, 0.2 M potassium salt, MES; PPP2 in PEG 3350, 0.2 M calcium chloride, MES pH 5.5.
The target of experiment [5] is T1, PPP2 (Madurella mycetomatis, UniProt A0A175WC91).
T1 construct: gene MMYC01_201259; synthetic gene in pET15b, E. coli C41, N-terminal His6 tag removed by thrombin; trimer with central K+; no cobalt site
As to the kind of experiment: UV decrease of substrate at […] nm. In kind it is biochemical. Particulars: 0.5 mM substrate, 50 mM KPi pH 6.5, RT, 160 ug/ml enzyme; decarboxylation to pyrogallol, weaker than protocatechuic acid.

The target of a further experiment is T2, AGDC1 (Blastobotrys adeninivorans, UniProt A0A060TAG5).
T2 construct: synthetic gene in pET15b, E. coli C41, N-terminal His6 tag removed by thrombin; trimer with central K+ and peripheral Co2+ sites
Put plainly: UV decrease of gallic acid at […] nm. The class given is biochemical. The following applies: read-out: % inhibition at 0.5 mM.

Experiment [6] has as its target AGDC1 E88A mutant (Arxula adenivorans). As to the kind of experiment: SEC; Superdex 200 10/300; with (25 mM Tris 7.5, 50 mM KCl, 100 mM NaCl) or without (25 mM Tris 7.5, 100 mM NaCl) potassium; Bio-rad Gel Filtration Standard; all proteins eluted as a single peak.
Experiment [7] has as its target T1, PPP2. As to the kind of experiment: UV decrease of substrate at […] nm. The class given is biochemical. Particulars: 0.5 mM substrate, 50 mM KPi pH 6.5, RT, 160 ug/ml enzyme; decarboxylation to catechol.

T2 sequence (A0A060TAG5 entry or part of it): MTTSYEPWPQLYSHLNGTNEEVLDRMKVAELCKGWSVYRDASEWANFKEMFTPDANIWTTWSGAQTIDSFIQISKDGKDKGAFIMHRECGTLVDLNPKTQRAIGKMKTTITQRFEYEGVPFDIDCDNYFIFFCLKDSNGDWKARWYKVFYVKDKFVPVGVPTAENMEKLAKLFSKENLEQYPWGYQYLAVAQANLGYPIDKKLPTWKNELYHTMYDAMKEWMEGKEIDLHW

With “Pea Pathogenity Protein (PPP2) from Madurella mycetomatis (enzyme)”, the stoichiometry N in experiment [1] and in experiment [2] was 3 throughout.

In the case of “gallic acid decarboxylase AGDC1 from Arxula adenivorans (enzyme)”, the stoichiometry N in experiment [3] and in experiment [4] was 3 in each case.

For `O=C(O)c1cc(O)c(O)c(O)c1` [gallic acid], the “UV decrease of substrate at 259 nm” value at PPP2 [5] is given as “PPP2 activity with PCA was ~ sevenfold higher than with GA”.

Turning to `O=[N+]([O-])c1ccc(O)c(O)c1` [4-nitrocatechol], the inhibition – broadly, the change of the read-out against control, counted positive when it falls – at 500 µM on AGDC1 worked out at 98%.

For the compound AGDC1 E88A mutant (enzyme), the stoichiometry N – broadly, the number of molecules, sites or subunits per partner or assembly – in experiment [6] came out at 3.

As to `O=C(O)c1ccc(O)c(O)c1` [protocatechuic acid], the “UV decrease of substrate at 250 nm” value at PPP2 [7] was “PPP2 activity with PCA was ~ sevenfold higher than with GA”.

These data come from article PMC7862292, “Crystal structures of non-oxidative decarboxylases reveal a new mechanism of action with a catalytic dyad and structural twists” (Scientific Reports, 2021).
